Earlier results in paper PMC10524267.

Target: CX3CR1 (Homo sapiens) (UniProt P49238)
UniProt P49238, sequence (P49238 whole entry): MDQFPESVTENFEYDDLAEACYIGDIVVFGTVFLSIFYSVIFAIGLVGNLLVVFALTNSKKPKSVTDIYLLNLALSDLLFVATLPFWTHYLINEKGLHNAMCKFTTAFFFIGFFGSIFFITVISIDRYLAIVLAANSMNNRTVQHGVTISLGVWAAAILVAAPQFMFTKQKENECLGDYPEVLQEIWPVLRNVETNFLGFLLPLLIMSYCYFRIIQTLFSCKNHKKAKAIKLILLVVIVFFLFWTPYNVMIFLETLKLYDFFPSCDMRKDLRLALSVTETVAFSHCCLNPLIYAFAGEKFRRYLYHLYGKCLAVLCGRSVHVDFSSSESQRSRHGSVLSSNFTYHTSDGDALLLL

Which Kd does the source give for CX3CL1 (from UniProt P78423) here?
Its Kd is 0.91 nM.
